Columns and labels:
[1] = molecular target: LFA-1 on Jurkat T cells (UniProt P20701); assay: cell-based or functional assay
[2] = molecular target: CD28 on Jurkat T cells (UniProt P10747); assay: cell-based or functional assay

Sequence of LFA-1 on Jurkat T cells (P20701 26-1170 limits assumed, chain 1 of 2): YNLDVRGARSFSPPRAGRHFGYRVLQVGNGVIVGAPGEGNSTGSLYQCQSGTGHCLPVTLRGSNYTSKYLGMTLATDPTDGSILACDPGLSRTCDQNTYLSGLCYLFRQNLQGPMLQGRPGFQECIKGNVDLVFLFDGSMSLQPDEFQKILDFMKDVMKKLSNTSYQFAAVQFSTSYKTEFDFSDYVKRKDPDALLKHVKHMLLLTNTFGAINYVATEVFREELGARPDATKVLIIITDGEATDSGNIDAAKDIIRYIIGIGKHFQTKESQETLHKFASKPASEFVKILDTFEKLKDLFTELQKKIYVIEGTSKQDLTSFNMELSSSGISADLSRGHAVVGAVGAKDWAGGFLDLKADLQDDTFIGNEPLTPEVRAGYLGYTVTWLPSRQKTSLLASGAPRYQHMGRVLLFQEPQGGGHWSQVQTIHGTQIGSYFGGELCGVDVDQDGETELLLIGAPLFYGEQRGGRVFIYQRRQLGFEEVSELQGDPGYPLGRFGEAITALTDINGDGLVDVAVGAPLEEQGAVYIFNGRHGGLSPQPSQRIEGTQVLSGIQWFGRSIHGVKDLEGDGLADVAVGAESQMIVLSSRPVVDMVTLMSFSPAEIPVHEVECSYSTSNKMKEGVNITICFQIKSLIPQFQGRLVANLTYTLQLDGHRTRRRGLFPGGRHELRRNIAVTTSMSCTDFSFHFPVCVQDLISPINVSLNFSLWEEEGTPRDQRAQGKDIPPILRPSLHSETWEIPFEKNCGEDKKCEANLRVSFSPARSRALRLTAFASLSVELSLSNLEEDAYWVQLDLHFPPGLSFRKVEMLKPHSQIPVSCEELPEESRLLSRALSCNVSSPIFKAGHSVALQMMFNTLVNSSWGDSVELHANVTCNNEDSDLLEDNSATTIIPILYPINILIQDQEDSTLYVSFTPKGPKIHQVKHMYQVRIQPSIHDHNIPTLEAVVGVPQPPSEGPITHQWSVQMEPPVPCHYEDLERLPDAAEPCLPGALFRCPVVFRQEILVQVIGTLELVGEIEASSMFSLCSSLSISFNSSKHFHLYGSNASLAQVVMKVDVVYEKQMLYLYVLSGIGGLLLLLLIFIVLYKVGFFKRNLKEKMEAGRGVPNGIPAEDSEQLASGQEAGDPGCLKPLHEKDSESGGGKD
Sequence of LFA-1 on Jurkat T cells (P05107 23-769 limits assumed, chain 2 of 2, further chain): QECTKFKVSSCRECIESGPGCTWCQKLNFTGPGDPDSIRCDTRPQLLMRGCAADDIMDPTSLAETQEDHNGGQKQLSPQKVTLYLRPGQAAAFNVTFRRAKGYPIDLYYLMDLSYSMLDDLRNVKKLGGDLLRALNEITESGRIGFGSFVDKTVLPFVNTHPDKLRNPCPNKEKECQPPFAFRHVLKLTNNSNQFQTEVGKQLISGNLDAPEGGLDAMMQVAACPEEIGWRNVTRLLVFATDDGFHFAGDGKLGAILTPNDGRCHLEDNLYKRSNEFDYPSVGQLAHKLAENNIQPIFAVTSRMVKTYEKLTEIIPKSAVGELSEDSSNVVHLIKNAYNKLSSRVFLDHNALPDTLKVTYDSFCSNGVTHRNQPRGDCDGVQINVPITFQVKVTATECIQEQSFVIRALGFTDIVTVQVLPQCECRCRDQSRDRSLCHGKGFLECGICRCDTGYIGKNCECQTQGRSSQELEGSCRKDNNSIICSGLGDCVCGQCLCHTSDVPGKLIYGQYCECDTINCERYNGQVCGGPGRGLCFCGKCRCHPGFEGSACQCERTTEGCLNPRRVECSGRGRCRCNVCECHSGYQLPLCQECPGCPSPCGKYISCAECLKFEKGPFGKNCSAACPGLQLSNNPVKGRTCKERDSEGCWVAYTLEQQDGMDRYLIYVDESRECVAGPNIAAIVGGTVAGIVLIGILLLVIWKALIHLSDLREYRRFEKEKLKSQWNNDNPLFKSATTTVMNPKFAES

| Substance | Jurkat T cell adhesion to MembraneChip (fold against the control) [1] | Jurkat T cell adhesion to MembraneChip (fold against the control) [2] |
| --- | --- | --- |
| GPI-tethered extracellular domain of human ICAM-1 expressed from pYBS101 (from UniProt P05362 28-480) (ligand) | 3 | – |
| GPI-tethered extracellular domain of human B7-1 expressed from pYBS101 (from UniProt P33681 35-242) (ligand) | – | 4 |

Source: patent US20090226960A1
